Measurements published in publication PMC10658565, “Polymorphic nanobody crystals as long‐acting intravitreal therapy for wet age‐related macular degeneration” (Bioengineering & Translational Medicine, 2023).

B1: mNb‐WT [not stated] / recombinant VEGF‐A165 protein [not stated] (parent complex)
chain 1: MDVQLVESGGGLVQPGGSLRLSCAASGRTFSSYSMGWFRQAPGKEREFVVAISKGGYKYDAVSLEGRFTISRDNAKNTVYLQINSLRPEDTAVYYCASSRAYGSSRLRLADTYEYWGQGTLVTVSS
chain 2: APMAEGGGQNHHEVVKFMDVYQRSYCHPIETLVDIFQEYPDEIEYIFKPSCVPLMRCGGCCNDEGLECVPTEESNITMQIMRIKPHQGQHIGEMSFLQHNKCECRPKKDRARQENPCGPCSERRKHLFVQDPQTCKCSCKNTDSRCKARQLELNERTCRCDKPRR

Variants of: B1
Test: ELISA; parent: 0.73 nM

**Q.** For chain 1 MDVQLVESGGGLVQPGGSLRLSCAASGRTFSSYSMGWFRQAPGKEREFVVAISKGGYKYDAVSLEGRFTISRDNAKNTVYLQINSLRPEDTAVYFCASSRAYGSSRLRLADTYEYWGQGTLVTVSS [chain 1 Y95F], which EC50 is on record?
**A.** 0.8 nM

**Q.** Which EC50 does the source give for chain 1 MDVQLVESGGGLVQPGGSLRLSCAASGRTFSSYSMGWFRQAPGAAREFVVAISKGGYKYDAVSLEGRFTISRDNAKNTVYLQINSLRPEDTAVYYCASSRAYGSSRLRLADTYEYWGQGTLVTVSS [chain 1 K44A, chain 1 E45A] here?
**A.** 0.91 nM

**Q.** Which EC50 does the source give for chain 1 MDVQLVESGGGLVQPGGSLRLSCAASGRTFSSYSMGWFRQAPGKEREFVVAISKGGYKYDAVSLEGRFTISRDNAKNTVYLQINSLRPEDTAVYYCASSRAYGSSRLRLADTYEYWGNGTLVTVSS [chain 1 Q118N] here?
**A.** 0.77 nM

**Q.** With chain 1 MDVQLVESGGGLVQPGGSLRLSCAASGRTFSSYSMGWFRQAPGKAREFVVAISKGGYKYDAVSLEGRFTISRDNAKNTVYLQINSLRPEDTAVYYCASSRAYGSSRLRLADTYEYWGQGTLVTVSS [chain 1 E45A] as the variant, how does the EC50 read?
**A.** 0.79 nM

**Q.** With chain 1 MDVQLVESGGGLVQPGGSLRLSCAASGRTFSSYSMGWFRQAPGAEREFVVAISKGGYKYDAVSLEGRFTISRDNAKNTVYLQINSLRPEDTAVYYCASSRAYGSSRLRLADTYEYWGQGTLVTVSS [chain 1 K44A] as the variant, how does the EC50 read?
**A.** 0.62 nM

**Q.** How did the EC50 turn out when chain 1 MDVQLVEAGGGLVQPGGSLRLSCAASGRTFSSYSMGWFRQAPGKEREFVVAISKGGYKYDAVSLEGRFTISRDNAKNTVYLQINSLRPEDTAVYYCASSRAYGSSRLRLADTYEYWGQGTLVTVSS [chain 1 S8A] was run?
**A.** 0.82 nM

**Q.** With chain 1 MDVQLVESGGGLVNPGGSLRLSCAASGRTFSSYSMGWFRQAPGKEREFVVAISKGGYKYDAVSLEGRFTISRDNAKNTVYLQINSLRPEDTAVYYCASSRAYGSSRLRLADTYEYWGQGTLVTVSS [chain 1 Q14N] as the variant, how does the EC50 read?
**A.** 0.77 nM
